In patent US20140341881A1 (DERMADIS, published 2014):

How the values were obtained:
human kallikrein 2 (hK2) [1] = biological target: T1, human kallikrein 2 (hK2) (human, UniProt P20151 25-261); experiment: residual enzyme activity against [I]o/[E]o, fluorogenic substrate
T1 construct: two preparations treated as one molecule; also called kallikrein hK2
Protocol: (§1) The stoichiometry of inhibition (SI) values were determined for the inhibition of rACTWT and its variants with hK2 and different other enzymes. An initial test was made with a molar excess of rACT (100 fold) over hK2, PSA, hK1, chymotrypsin (Chtr), plasma kallikrein (PK), urokinase (uPA) and human neutrophile elastase (HNE) enzymes. The reaction was carried out for 30 min at 25° C. (90 min at 37° C. for PSA) in reaction buffer (50 mM Tris pH 7.5, 150 mM NaCl, 0,05% Triton X-100, 0.01% BSA) and residual enzyme activity was measured by adding fluorescent substrates (Z-Phe-Arg-AMC for hK1, hK2 and PK, Suc-Ala-Ala-Pro-Phe-AMC for Chtr, Z-Gly-Gly-Arg-AMC for uPA, MeOSuc-Ala-Ala-Pro-Val-AMC for HNE, and CFP-TFRSA-YFP (TFRSA SEQ ID NO:137) for PSA). Activity of enzyme in presence of inhibitors was compared to uninhibited reaction. For reactions where an inhibition was observed, SI was determined by incubating different concentrations of recombinant serpins. Using linear regression analysis of fractional activity (velocity of inhibited enzyme reaction/velocity of uninhibited enzyme reaction) versus the molar ratio of the inhibitor to enzyme ([Iₒ]/[Eₒ]), the stoichiometry of inhibition, corresponding to the abscissa intercept, was obtained.

[2] = biological target: prostate specific antigen (PSA, hK3) (human, UniProt P07288 25-261); experiment: cell-based or functional assay
[3] = biological target: urokinase plasminogen activator (uPA) (UniProt P00749 21-431, limits assumed); experiment: cell-based or functional assay
human kallikrein 2 (hK2) [4] = biological target: T1, human kallikrein 2 (hK2); experiment: cell-based or functional assay
human kallikrein hK1 = human kallikrein hK1 (human, UniProt P06870 25-262); experiment: cell-based or functional assay
human kallikrein 2 (hK2) [5] = biological target: T1, human kallikrein 2 (hK2); experiment: progress curve, pseudo-first order, fluorogenic substrate
Protocol: (§2) Under these conditions, a fixed amount of enzyme (2 nM) was mixed with different concentrations of inhibitor (0-800 nM) and an excess of substrate (10 μM). Each reaction was made in reaction buffer (50 mM Tris pH 7.5, 150 mM NaCl, 0,05% Triton X-100, 0.01% BSA) at 25° C. for 45 min and the rate of product formation was measured using a FLₓ800 fluorescence 96-well microplate reader (Biotek, USA). In this model, inhibition is considered to be irreversible over the course of reaction and the progress of enzyme activity is expressed by product formation (P), beginning at a rate (vz) and is inhibited over time (t) at a first-order rate (kobs), rate constant that is dependent only on inhibitor concentration.

[6] = biological target: T2, human plasma kallikrein (PK) (human, UniProt P03952 20-638); experiment: residual enzyme activity against [I]o/[E]o, fluorogenic substrate
T2 sequence (P03952 20-638 limits assumed): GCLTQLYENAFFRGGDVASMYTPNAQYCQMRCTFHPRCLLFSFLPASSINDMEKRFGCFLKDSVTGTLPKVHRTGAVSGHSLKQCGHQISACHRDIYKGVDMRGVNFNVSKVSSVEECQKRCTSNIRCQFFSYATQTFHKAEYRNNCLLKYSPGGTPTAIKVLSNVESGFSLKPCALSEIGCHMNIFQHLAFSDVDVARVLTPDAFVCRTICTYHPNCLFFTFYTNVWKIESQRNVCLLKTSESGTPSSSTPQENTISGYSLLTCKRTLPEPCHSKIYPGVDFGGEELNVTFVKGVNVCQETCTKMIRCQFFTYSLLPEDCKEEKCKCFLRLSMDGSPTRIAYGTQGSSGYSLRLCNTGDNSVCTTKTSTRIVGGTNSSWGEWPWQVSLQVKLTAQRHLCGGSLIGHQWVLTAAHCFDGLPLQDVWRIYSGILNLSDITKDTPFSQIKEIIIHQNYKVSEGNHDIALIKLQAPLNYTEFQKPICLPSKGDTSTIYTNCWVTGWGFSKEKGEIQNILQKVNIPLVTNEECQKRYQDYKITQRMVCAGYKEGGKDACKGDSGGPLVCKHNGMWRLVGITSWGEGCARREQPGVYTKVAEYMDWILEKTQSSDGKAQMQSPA
Protocol: as §1

[7] = biological target: T2, human plasma kallikrein (PK); experiment: cell-based or functional assay
[8] = biological target: T2, human plasma kallikrein (PK); experiment: progress curve, pseudo-first order, fluorogenic substrate
Protocol: as §2

Row | SI (stoichiometry of inhibition) (human kallikrein 2 (hK2) [1]) | INHIBITION % [2] | INHIBITION % [3] | INHIBITION % (human kallikrein 2 (hK2) [4]) | INHIBITION % (human kallikrein hK1) | kon (human kallikrein 2 (hK2) [5]) | SI (stoichiometry of inhibition) [6] | INHIBITION % [7] | kon [8] | Binder
1 | 139 | 0% | 0% | 73% | 0% | 595 M⁻¹ s⁻¹ |  |  |  | rACT5.18 (other, recombinant ACT variant, RSL substrate peptide ERVSP; N-terminal His tag, E. coli TG1; also called MD518) MRGSHHHHHHSRHPNSPLDEENLTQENQDRGTHVDLGLASANVDFAFSLYKQLVLKAPDKNVIFSPLSISTALAFLSLGAHNTTLTEILKGLKFNLTETSEAEIHQSFQHLLRTLNQSSDELQLSMGNAMFVKEQLSLLDRFTEDAKRLYGSEAFATDFQDSAAAKKLINDYVKNGTRGKITDLIKDLDSQTMMVLVNYIFFKAKWEMPFDPQDTHQSRFYLSKKKWVMVPMMSLHHLTIPYFRDEELSCTVVELKYTGNASALFILPDQDKMEEVEAMLLPETLKRWRDSLEFREIGELYLPKFSISRDYNLNDILLQLGIEEAFTSKADLSGITGARNLAVSQVVHKAVLDVFEEGTEASAATAVKITERVSPVETRTIVRFNRPFLMIIVPTDTQNIFFMSKVTNPKQA
2 | 25 |  | 0% | 100% | 0% | 6260 M⁻¹ s⁻¹ | 18 | 100% | 6220 M⁻¹ s⁻¹ | rACT6.2 (other, recombinant ACT variant, RSL substrate peptide RRSID; N-terminal His tag, E. coli TG1; also called MD62; MD 62) MRGSHHHHHHSRHPNSPLDEENLTQENQDRGTHVDLGLASANVDFAFSLYKQLVLKAPDKNVIFSPLSISTALAFLSLGAHNTTLTEILKGLKFNLTETSEAEIHQSFQHLLRTLNQSSDELQLSMGNAMFVKEQLSLLDRFTEDAKRLYGSEAFATDFQDSAAAKKLINDYVKNGTRGKITDLIKDLDSQTMMVLVNYIFFKAKWEMPFDPQDTHQSRFYLSKKKWVMVPMMSLHHLTIPYFRDEELSCTVVELKYTGNASALFILPDQDKMEEVEAMLLPETLKRWRDSLEFREIGELYLPKFSISRDYNLNDILLQLGIEEAFTSKADLSGITGARNLAVSQVVHKAVLDVFEEGTEASAATAVKITRRSIDVETRTIVRFNRPFLMIIVPTDTQNIFFMSKVTNPKQA
3 | 34 | 0% | 0% | 100% | 0% | 2440 M⁻¹ s⁻¹ |  |  |  | rACT8.3 (other, recombinant ACT variant, RSL substrate peptide RGRSE; N-terminal His tag, E. coli TG1; also called MD83; MD 83) MRGSHHHHHHSRHPNSPLDEENLTQENQDRGTHVDLGLASANVDFAFSLYKQLVLKAPDKNVIFSPLSISTALAFLSLGAHNTTLTEILKGLKFNLTETSEAEIHQSFQHLLRTLNQSSDELQLSMGNAMFVKEQLSLLDRFTEDAKRLYGSEAFATDFQDSAAAKKLINDYVKNGTRGKITDLIKDLDSQTMMVLVNYIFFKAKWEMPFDPQDTHQSRFYLSKKKWVMVPMMSLHHLTIPYFRDEELSCTVVELKYTGNASALFILPDQDKMEEVEAMLLPETLKRWRDSLEFREIGELYLPKFSISRDYNLNDILLQLGIEEAFTSKADLSGITGARNLAVSQVVHKAVLDVFEEGTEASAATAVKIRGRSELVETRTIVRFNRPFLMIIVPTDTQNIFFMSKVTNPKQA
